According to patent publication US20250090676A1 (SUTRO BIOPHARMA, published 2025):

Columns and labels:
human FOLR1-HIS [1] = target: T1, human FOLR1-HIS (human, UniProt P15328 25-233); experiment: SPR (Biacore), antibody captured on anti-Fc, human FOLR1-HIS analyte, 25 C
T1 construct: Analyte of the Biacore assay; also called FolRα-ECD; extracellular domain of FOLR1; not shown: HIS tag

[2] = target: T2, cynomolgus monkey folate receptor alpha (cynomolgus monkey, UniProt P15328 25-234 (human entry)); experiment: FACS, CHO-cFOLR1 cells
T2 construct: Expressed on the surface of stably transfected CHO cells; also called cyno FolR1; CHO-cyno FolR1
T2 sequence (P15328 other isoform, or with tags, fused parts or gaps limits assumed): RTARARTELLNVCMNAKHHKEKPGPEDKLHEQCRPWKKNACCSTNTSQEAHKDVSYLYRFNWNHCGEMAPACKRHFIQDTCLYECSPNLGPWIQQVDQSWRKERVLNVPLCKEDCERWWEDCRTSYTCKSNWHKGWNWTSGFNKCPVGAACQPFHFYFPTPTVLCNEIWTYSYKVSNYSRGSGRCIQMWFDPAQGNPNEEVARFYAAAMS

[3] = target: T3, human folate receptor alpha (hFOLR1) (human, UniProt P15328 25-234); experiment: FACS, CHO-hFOLR1 cells;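 note: flow cytometry of serially diluted antibodies binding CHO cells stably expressing the receptor, 60 min on ice, mixed with dye-tagged parental CHO as background control, one-site specific fit with Hill slope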
T3 construct: endogenous on FOLR1-positive KB and Igrov1 cells (cell killing); also called human FolR1; FolRα
T3 sequence (P15328 25-234 limits assumed): as the sequence (P15328 other isoform, or with tags, fused parts or gaps limits assumed) above, with T2I, R4W, K37R, R117Q, P146A, Y171H counted along it
Description: (§1) CHO cells were transfected to stably express human (CHO-hFOLR1), cynomolgus (CHO-cFOLR1), or mouse (CHO-mFOLR1) target molecule FOLR1 on the cell surface. Parental CHO cells were used as a negative control to determine background binding levels. Parental CHO and stably transfected CHO-hFOLR1, CHO-cFOLR1, and CHO-mFOLR1 cells were cultured in Ham's F-12: high glucose DMEM (50:50) (Corning, Cellgro-Mediatech) supplemented with 10% heat-inactivated fetal bovine serum (Corning, Cellgro-Mediatech), 1% Penicillin/Streptomycin (Corning, Cellgro-Mediatech) and 2 mmol/L-glutamax (Life Technology).
A mixture of fluoresecent-labeled parental CHO cells and unlabeled CHO-hFOLRlcells were prepared as follows. Parental CHO cells were washed twice in PBS and incubated in PBS containing with 1 nM CellTrace™ Oregon Green488® (Life Technologies) at 37° C. for 30 minutes. Labeled parental CHO cells were then washed 2× with Ham's F-12 media and 2× with FACS buffer (PBS with 1% bovine serum albumin). Unlabeled CHO-hFOLR1 cells were similarly washed and prepared. Labeled parental CHO and unlabeled CHO-hFOLR1 cells were combined at 1:1 ratio and seeded at 50 μL per well (200,000 cells per well) in 96 well polypropylene plates. Cells were mixed with 50 μL of test antibodies (i.e., anti-FOLR1 variants) serially diluted in FACS buffer and incubated on ice for 60 mins. […] Data were analyzed using FlowJo® software (FlowJo, LLC; Ashland, OR) to determine mean fluorescence intensities. Binding constants were calculated using the statistical software, GraphPad Prism (GraphPad Software; La Jolla, CA) using the nonlinear regression equation, one site-specific binding with Hill slope. Secondary antibody alone was used as a control, in addition to measuring non-specific antibody binding to CHO parental cells.

[4] = target: T4, murine folate receptor alpha (mouse, UniProt P35846 25-232); experiment: FACS, CHO-mFOLR1 cells;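 note: flow cytometry binding of serially diluted test antibodies to transfected CHO cells on ice, mean fluorescence intensity, parental CHO cells give background, Kd from one-site specific binding fit with Hill slope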
T4 construct: Expressed on the surface of stably transfected CHO cells; also called mouse FolR1; CHO-mouse FolR1
T4 sequence (P35846 25-232 limits assumed): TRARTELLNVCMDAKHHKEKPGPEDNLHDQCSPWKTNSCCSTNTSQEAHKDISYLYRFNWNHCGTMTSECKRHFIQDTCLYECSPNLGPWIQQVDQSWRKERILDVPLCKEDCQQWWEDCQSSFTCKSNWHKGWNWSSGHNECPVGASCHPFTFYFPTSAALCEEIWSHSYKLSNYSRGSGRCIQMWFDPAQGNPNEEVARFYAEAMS

[5] = target: T3, human folate receptor alpha (hFOLR1); experiment: cell-based or functional assay
[6] = target: T5, human folate receptor alpha on cells (human, UniProt P15328 25-234); experiment: cell-based or functional assay
T5 sequence (P15328 25-234 limits assumed): as the sequence (P15328 other isoform, or with tags, fused parts or gaps limits assumed) above, with T2I, R4W, K37R, R117Q, P146A, Y171H counted along it

[7] = target: human folate receptor beta on cells (human, UniProt P14207 17-230); experiment: cell-based or functional assay
Chain of human folate receptor beta on cells (P14207 17-230): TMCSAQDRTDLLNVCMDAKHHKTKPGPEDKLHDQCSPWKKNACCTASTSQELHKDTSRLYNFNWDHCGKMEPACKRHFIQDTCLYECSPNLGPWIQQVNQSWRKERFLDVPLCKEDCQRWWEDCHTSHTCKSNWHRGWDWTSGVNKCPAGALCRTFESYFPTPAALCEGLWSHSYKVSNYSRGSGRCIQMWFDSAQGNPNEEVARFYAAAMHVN

[8] = target: T6, human folate receptor alpha (hFOLR1) on cells (human, UniProt P15328 25-234); experiment: cell-based or functional assay
T6 sequence (P15328 25-234 limits assumed): as the sequence (P15328 other isoform, or with tags, fused parts or gaps limits assumed) above, with T2I, R4W, K37R, R117Q, P146A, Y171H counted along it

[9] = target: T5, human folate receptor alpha on cells; experiment: FACS cell binding (MFI) on 293T-hFOLR1 cells; parental 293T cells as negative control
[10] = target: T5, human folate receptor alpha on cells; experiment: FACS cell binding (MFI) on 293T cells stably expressing hFOLR1 (293T-hFOLR1); parental 293T cells as negative control
human FOLR1-HIS [11] = target: T1, human FOLR1-HIS; experiment: SPR (Biacore)
[12] = target: T6, human folate receptor alpha (hFOLR1) on …; experiment: FACS cell binding on CHO-h-FOLRα cells
Description: as §1
(§2) A mixture of fluoresecent-labeled parental CHO cells and unlabeled CHO-hFOLRlcells were prepared as follows. Parental CHO cells were washed twice in PBS and incubated in PBS containing with 1 nM CellTrace™ Oregon Green488® (Life Technologies) at 37° C. for 30 minutes. Labeled parental CHO cells were then washed 2× with Ham's F-12 media and 2× with FACS buffer (PBS with 1% bovine serum albumin). Unlabeled CHO-hFOLR1 cells were similarly washed and prepared. […] Data were analyzed using FlowJo® software (FlowJo, LLC; Ashland, OR) to determine mean fluorescence intensities. Binding constants were calculated using the statistical software, GraphPad Prism (GraphPad Software; La Jolla, CA) using the nonlinear regression equation, one site-specific binding with Hill slope. […]

[13] = target: T7, cynomolgus folate receptor alpha on CHO cells (cynomolgus monkey, UniProt P15328 25-234 (human entry)); experiment: FACS cell binding on CHO-c-FOLRα cells (row 'Cross-reactivity, Cyno')
T7 construct: Stably expressed on CHO cells; also called CHO-c-FOLRα; CHO-cFOLR1
T7 sequence (P15328 other isoform, or with tags, fused parts or gaps limits assumed): as the sequence (P15328 other isoform, or with tags, fused parts or gaps limits assumed) above
Description: as §1, §2

T1 sequence (P15328 25-233 limits assumed): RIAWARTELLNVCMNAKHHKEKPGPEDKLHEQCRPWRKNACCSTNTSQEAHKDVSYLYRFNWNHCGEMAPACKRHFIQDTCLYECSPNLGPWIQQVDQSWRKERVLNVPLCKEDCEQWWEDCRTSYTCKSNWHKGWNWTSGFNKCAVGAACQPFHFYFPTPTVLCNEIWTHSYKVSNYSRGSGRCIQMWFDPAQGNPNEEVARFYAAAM

Binder	Bmax (MFI) [2]	Kd [2]	Bmax (MFI) [3]	Kd [3]	Bmax (MFI) [4]	Kd [4]	Igrov, 2° Antibody Cell Killing, Nb-SC239: EC50 [5]	Igrov, 2° Antibody Cell Killing, Nb-SC239: Span [5]	KB, 2° Antibody Cell Killing, Nb-239: EC50 [5]	KB, 2° Antibody Cell Killing, Nb-239: Span [5]	further results
SRP2060-E10 (antibody, V domains shown, also called Antibody 56) VH: EVQLLESGGGLVQPGGSLRLSCAFSGFSLSTFGMGVGWVRQAPGKGLEWVSHIWWDDDKYYHPALKGRFTISKDNSKNTVYLQMNSLRAEDTAVYYCGRNHFPHYYGSSHWYFNVWGQGTTVTVSS VL: EIVMTQSPATLSLSPGERATLSCKASQDINSYLSWYQQKPGQAPRLLIYRANRLVDGIPARFSGSGSGTDYTLTISSLEPEDFAVYYCLQYDEFPYTFGGGTKVEIK	–	–	–	–	–	–	–	–	–	–	Kd (human FOLR1-HIS [1]): 2.06 nM; koff (human FOLR1-HIS [1]): 0.0012 s⁻¹; kon (human FOLR1-HIS [1]): 582000 M⁻¹ s⁻¹
SRP2060-B01 (antibody, V domains shown, also called Antibody 58) VH: EVQLLESGGGLVQPGGSLRLSCALSGFSLSTFGMGVGWVRQATGKGLEWVSHIWWDDDKYYHPALKGRFTISKDNSKNTVHLQMNSLRAEDTAVYYCGRNHFPHYYGSSHWYFNVWGQGTTVTVSS VL: DIQMTQSPSTLSASVGDRVTITCKASQDINSYLSWYQQKPGKAPKLLIYRANRLVDGVPSRFSGSGSGTEFTLTISSLQPDDFATYYCLQYDEFPYTFGGGTKVEIK	–	–	–	–	–	–	–	–	–	–	Kd (human FOLR1-HIS [1]): 2.62 nM; koff (human FOLR1-HIS [1]): 0.00147 s⁻¹; kon (human FOLR1-HIS [1]): 561000 M⁻¹ s⁻¹
SRP2060-A06 (antibody, V domains shown, also called Antibody 59) VH: EVQLLESGGGLVQPGGSLRLSCAFSGFSLSTFGMGVGWVRQAPGKGLEWVGHIWWDDDKYYYPALKGRFTISKDNSKNTVYLQMNSLRAEDTAVYYCGRNHFPHYYGSSHWYFDVWGQGTTVTVSS VL: DIQMTQSPSTLSASVGDRVTITCKASQDINSYLSWYQQKPGKAPKLLIYRANRLVDGVPSRFSGSGSGTEFTLTISSLQPDDFATYYCLQYDEFPYTFGGGTKVEIK	–	–	–	–	–	–	–	–	–	–	Kd (human FOLR1-HIS [1]): 13.3 nM; koff (human FOLR1-HIS [1]): 0.00729 s⁻¹; kon (human FOLR1-HIS [1]): 547000 M⁻¹ s⁻¹
SRP2060-E05 (antibody, V domains shown, also called Antibody 57) VH: EVQLLESGGGLVQPGGSLRLSCAFSGFSLSTFGMGVGWVRQAPGKGLEWVSHIWWDDDKYYHPALKGRFTVSKDNSKNTVYLQMNSLRAEDTAVYYCGRNHFPHYYGSSHWYFNVWGQGTTVTVSS VL: EIVMTQSPATLSLSPGERATLSCKASQDINSYLSWYQQKPGQAPRLLIYRANRLVDGIPARFSGSGSGTDYTLTISSLEPEDFAVYYCLQYDEFPYTFGGGTKVEIK	–	–	–	–	–	–	–	–	–	–	Kd (human FOLR1-HIS [1]): 2.92 nM; koff (human FOLR1-HIS [1]): 0.00158 s⁻¹; kon (human FOLR1-HIS [1]): 541000 M⁻¹ s⁻¹
SRP1848-E03 (antibody, V domains shown, HC variant paired with trastuzumab LC, cell-free expressed, HIS- and FLAG-tagged; also called Antibody 33) VH: EVQLVESGGGLAQPGGSLRLSCAASGFNIGNYYIHWVRQAPGKGLEWVGGITPRDGFTDYADSVKGRFTISADTSKNTAYLQVNSLRAEDTAVYYCARGSWSWPAGHSYYLDYWGQGTLVTVSS VL: not shown	17400 MFI	0.43 nM	26700 MFI	0.76 nM	5940 MFI	0.5 nM	0.027 nM	73%	0.057 nM	94%	–
SRP1848-G06 (antibody, V domains shown, HC variant paired with trastuzumab LC, cell-free expressed, HIS- and FLAG-tagged; also called Antibody 50) VH: EVQLVESGGGLVQPGGSLRLSCAASGFNIRSTDIHWVRQAPGKGLEWVAYITPAGGATYYADNVKGRFTISADTSKNTAYLQMNSLRAEDTAVYYCARQPYWFAGYMDYWGQGTLVTVSS VL: not shown	12800 MFI	0.31 nM	25800 MFI	0.63 nM	1860 MFI	11.1 nM	0.026 nM	81%	0.057 nM	96%	–
SRP1848-G10 (antibody, V domains shown, HC variant paired with trastuzumab LC, cell-free expressed, HIS- and FLAG-tagged; also called Antibody 53) VH: EVQLVESGGGLVQPGSSLRLSCAASGFNIRSTDIHWVRQAPGKGLEWVAYITPAGGATYYADSVKGRFTISADTSKNTAYLQMNSLRAEDTAVYYCARYPYWFAGYIDYWGQGTLVTVSS VL: not shown	14200 MFI	0.24 nM	25300 MFI	0.49 nM	2890 MFI	4.3 nM	0.019 nM	79%	0.046 nM	97%	–
SRP1848-G09 (antibody, V domains shown, HC variant paired with trastuzumab LC, cell-free expressed, HIS- and FLAG-tagged; also called Antibody 52) VH: EVQLVESGGGLVQPGGSLRLSCAASGFNIRGTDIHWVRQAPGKGLEWVAYITPAGGATFYADSVKGRFTISADTSKNTAYLQMNSLRAEDTAVYYCARHEYWFSGYMDYWGQGTLVTVSS VL: not shown	17700 MFI	0.35 nM	25100 MFI	0.59 nM	2180 MFI	6.4 nM	0.036 nM	83%	0.073 nM	97%	–
SRP1848-G07 (antibody, V domains shown, HC variant paired with trastuzumab LC, cell-free expressed, HIS- and FLAG-tagged; also called Antibody 51) VH: EVQLVESGGGLVQPGGSLRLSCAASGFNIHSTDIHWVRQAPGKGLEWVAYITPAGGATWYADSVKGRFTISADTSKNTAYLQMNSLRAEDTAVYYCARYPFWFAGYMDYWGQGTLVTVSS VL: not shown	13700 MFI	0.35 nM	24900 MFI	0.78 nM	1980 MFI	2.9 nM	0.038 nM	78%	0.058 nM	94%	–
SRP1848-G11 (antibody, V domains shown, HC variant paired with trastuzumab LC, cell-free expressed, HIS- and FLAG-tagged; also called Antibody 54) VH: EVQLVESGGGLVQPGGSLRLSCAASGFNISSTDIHWVRQAPGKGLEWVAYITPAGGATWYADSVKGRFTISADTSKNTAYLQMNSLRAEDTAVYYCARYPYWFSGYMDYWGQGTLVTVSS VL: not shown	11800 MFI	0.26 nM	27200 MFI	0.68 nM	2740 MFI	7.6 nM	0.023 nM	84%	0.04 nM	97%	–
SRP1848-E06 (antibody, V domains shown, HC variant paired with trastuzumab LC, cell-free expressed, HIS- and FLAG-tagged; also called Antibody 35) VH: EVQLVESGGGLVQPSGSLRLSCAASGFNINRYYIHWVRQAPGKGLEWVGGITPNDGYTDYADSVEGRFTTSADTSKNTAYLQMNSLRAEDTAVYYCARGTWSWPSGHSYYLDYWGQGTLVTVSS VL: not shown	15800 MFI	0.26 nM	25600 MFI	0.48 nM	2350 MFI	1.2 nM	0.025 nM	74%	–	93%	–
ADC Molecule 4 (1848-H01, Y180/F404, Conjugate P) (antibody, V domains shown, Non-natural amino acid (para-azidomethyl-L-phenylalanine) at HC-Y180 and HC-F404 (EU, in the constant region, which has no SEQ ID NO), each linked to cleavable ValCit hemiasterlin (Conjugate P); DAR about 3.7-3.8) VH: EVQLVESGGGLVQPGGSLRLSCAASGFNIRTQSIHWVRQAPGKGLEWIGDIFPIDGITDYADSVKGRFTISADTSKNTAYLQMNSLRAEDTAVYYCARGSWSWPSGMDYYLDYWGQGTLVTVSS VL: not shown	–	–	–	–	–	–	–	–	–	–	EC50 of cytotoxic activity on 293T cells expressing FolRα [6]: < 10 nM; EC50 of cytotoxic activity on 293T cells expressing FolRβ [7]: ~100 nM
ADC Molecule 4 (1848-H01, Y180/F404, Conjugate P) (antibody, V domains shown, para-azidomethyl-L-phenylalanine at HC-Y180 and HC-F404 (EU numbering, heavy chain constant region), each linked to the cleavable hemiasterlin linker-drug of Conjugate P; DAR about 3.7-3.8) VH: EVQLVESGGGLVQPGGSLRLSCAASGFNIRTQSIHWVRQAPGKGLEWIGDIFPIDGITDYADSVKGRFTISADTSKNTAYLQMNSLRAEDTAVYYCARGSWSWPSGMDYYLDYWGQGTLVTVSS VL: not shown	–	–	–	–	–	–	–	–	–	–	cell killing EC50 on Igrov1 cells in the presence of 0.5 uM unconjugated 1848-H01 as competitor [8]: > 33 nM; cell killing EC50 on OVCAR3 cells in the presence of 0.5 uM unconjugated 1848-H01 as competitor [8]: > 33 nM
antibody 1848-H01 (antibody, V domains shown, the light chain is that of trastuzumab; It was tested as an IgG (detected with anti-human IgG); also called SRP1848-H01) VH: EVQLVESGGGLVQPGGSLRLSCAASGFNIRTQSIHWVRQAPGKGLEWIGDIFPIDGITDYADSVKGRFTISADTSKNTAYLQMNSLRAEDTAVYYCARGSWSWPSGMDYYLDYWGQGTLVTVSS VL: not shown	–	–	–	–	–	–	–	–	–	–	EC50 (read off the curve) [9]: ~10 nM; Kd [10]: 9.9 nM
1848-B10, Y180/F404 (antibody, V domains shown, para-azidomethyl-L-phenylalanine (pAMF) at HC-Y180 and HC-F404 (EU numbering; both lie in the heavy chain constant region, not in this VH piece), Lead antibody with non-natural amino acid sites Y180/F404) VH: EVQLVESGGGLVQPGGSLRLSCAASGFNTTTKSIHWVRQAPGKGLEWVGEIYPRDGITDYADSVKGRFTISADTSKNTAYLQMNSLRAEDTAVYYCARGGWHWRSGYSYYLDYWGQGTLVTVSS VL: not shown	–	–	–	–	–	–	–	–	–	–	Kd (human FOLR1-HIS [11]): 1.4 nM; Kd [12]: 4.5 nM; Kd [13]: 3.3 nM
1848-H01, Y180/F404 (antibody, V domains shown, para-azidomethyl-L-phenylalanine (pAMF) at HC-Y180 and HC-F404 (EU numbering; both lie in the heavy chain constant region, not in this VH piece), Lead antibody with non-natural amino acid sites Y180/F404) VH: EVQLVESGGGLVQPGGSLRLSCAASGFNIRTQSIHWVRQAPGKGLEWIGDIFPIDGITDYADSVKGRFTISADTSKNTAYLQMNSLRAEDTAVYYCARGSWSWPSGMDYYLDYWGQGTLVTVSS VL: not shown	–	–	–	–	–	–	–	–	–	–	Kd (human FOLR1-HIS [11]): 1 nM; Kd [12]: 3.7 nM; Kd [13]: 3.8 nM
